The source of these data is patent US20260028402A1 (SANYOU BIOPHARMACEUTICALS, published 2026).

Experiment [1] deals with T1, human PD-L1 on cells (human, UniProt Q9NZQ7 19-290).
T1 construct: whole, on cells; Overexpressed on CHO cells or present on HCC827 tumor cells; the cell is named under assay; also called human PD-L1-CHO cells; PD-L1 protein on HCC827 cells
The experiment in a line: flow cytometry on HCC827 cells.
Description: The cells were resuspended in the prepared FACS buffer and counted, and the cell suspension density was adjusted to 2×10⁶ cells/mL. 100 μL of HCC827 cells were added per well to 96-well plates. The plates were centrifuged at 300 g to remove the supernatant. […] The incubated cell mixture was centrifuged at 300 g to remove the supernatant, 200 μL of FACS buffer was added to corresponding wells, and the cells were resuspended with a multichannel pipette. The centrifugation, resuspension and washing steps were repeated twice, and the cells were centrifuged at 300 g to remove the supernatant. […] The incubated cell mixture was centrifuged at 300 g to remove the supernatant, 200 μL of FACS buffer was added to corresponding wells, and the cells were resuspended with a multichannel pipette. The centrifugation, resuspension and washing steps were repeated twice, and the cells were centrifuged at 300 g to remove the supernatant. The PE-labeled anti-biotin flow antibody (Abcam) was added, and the cells were pipetted to mix with a multichannel pipette and incubated at 4° C. for 30 minutes. The cells were centrifuged at 300 g to remove the supernatant, and FACS buffer was added to resuspend the cells. The centrifugation, resuspension and washing steps were repeated twice, and 200 μL of FACS buffer was added per well to resuspend the cells.

The target of experiment [2] is T2, mouse PD-L1 on cells (mouse, UniProt Q9EP73 19-290).
T2 construct: whole, on cells; also called mouse PD-L1-CHO cells
Description: flow cytometry on mouse PD-L1-CHO cells.
Description: The cells were resuspended with the prepared FACS buffer and counted, and the cell suspension density was adjusted to 2×10⁶ cells/mL. 100 μL of mouse PD-L1-CHO cells and cynomolgus monkey PD-L1-CHO cells were added per well to the 96-well plates, respectively. The plates were centrifuged at 300 g to remove the supernatant. […] The incubated cell mixture was centrifuged at 300 g to remove the supernatant, 200 μL of FACS buffer was added to corresponding wells, and the cells were resuspended with a multichannel pipette. The centrifugation, resuspension and washing steps were repeated twice, and the cells were centrifuged at 300 g to remove the supernatant. The PE-labeled anti-human IgG Fc flow antibody (Abcam, ab98596) was added, and the cells were pipetted to mix with a multichannel pipette and incubated at 4° C. for 30 minutes. The cells were centrifuged at 300 g to remove the supernatant, and FACS buffer was added to resuspend the cells. The centrifugation, resuspension and washing steps were repeated twice, and 200 μL of FACS buffer was added per well to resuspend the cells.

The target of experiment [3] is T3, B7-H2 protein (Sino Biological, 11559-H08H) (UniProt O75144 19-258).
T3 construct: Bought protein
T3 sequence (looked up): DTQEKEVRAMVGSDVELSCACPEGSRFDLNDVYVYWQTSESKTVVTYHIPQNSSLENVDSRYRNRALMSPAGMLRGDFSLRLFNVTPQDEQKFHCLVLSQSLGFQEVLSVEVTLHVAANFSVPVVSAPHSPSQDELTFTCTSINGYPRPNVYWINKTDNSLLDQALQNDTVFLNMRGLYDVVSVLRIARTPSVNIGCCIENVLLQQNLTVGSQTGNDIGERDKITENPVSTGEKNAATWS
The experiment in a line: ELISA, protein coated at 2 ug/mL; legend: N/A: No binding activity detected. How it is done: (§1) The specific procedures were as follows:
(§2) One day before the experiment, 30 μL of protein dilutions with a final concentration of 2 μg/mL (B7-H1 (i.e., PD-L1), B7-H2, B7-H3, B7-H4, and B7-DC (all proteins were purchased from Sino Biological Inc., catalog numbers 10084-HNAH, 11559-H08H, 11188-H08H, 10738-H08H, and 10292-H08H-B, respectively)) were added to the ELISA plates and the plates were incubated overnight at 4° C. The next day, the ELISA plate was rinsed three times with PBST, then blocked with 150 μL of PBS containing 5% skim milk powder at room temperature for 2 hours. […] The plates were washed three times with PBST, and 30 μL of 1:7000 diluted anti-human IgG Fc-HRP secondary antibody was added per well, followed by incubation at room temperature for 30 minutes. After washing the plate six times with PBST, TMB was added for color development, and the reaction was terminated by adding 2M HCl. The absorbance was read at a wavelength of 450 nm using a microplate reader (Molecular Devices, SpecterMax 190).

The target of experiment [4] is T4, B7-H3 protein (Sino Biological, 11188-H08H) (UniProt Q5ZPR3 29-461).
T4 construct: Bought protein
T4 sequence (looked up): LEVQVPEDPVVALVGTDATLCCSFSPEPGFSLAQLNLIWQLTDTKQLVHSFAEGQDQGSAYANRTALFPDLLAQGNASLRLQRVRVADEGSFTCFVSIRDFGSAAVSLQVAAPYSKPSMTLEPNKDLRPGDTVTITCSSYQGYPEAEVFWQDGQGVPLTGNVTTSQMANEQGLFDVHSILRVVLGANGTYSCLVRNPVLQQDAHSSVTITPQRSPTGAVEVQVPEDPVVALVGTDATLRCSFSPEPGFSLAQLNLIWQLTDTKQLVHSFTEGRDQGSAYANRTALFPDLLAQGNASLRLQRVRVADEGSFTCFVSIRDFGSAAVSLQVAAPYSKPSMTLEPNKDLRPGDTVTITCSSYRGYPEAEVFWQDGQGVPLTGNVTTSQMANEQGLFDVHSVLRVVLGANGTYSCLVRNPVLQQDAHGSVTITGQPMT
The description is as above. How it is done:
as §1, §2

Experiment [5] concerns the target T5, B7-H4 protein (Sino Biological, 10738-H08H) (UniProt Q7Z7D3 25-258).
T5 construct: Bought protein
T5 sequence (looked up): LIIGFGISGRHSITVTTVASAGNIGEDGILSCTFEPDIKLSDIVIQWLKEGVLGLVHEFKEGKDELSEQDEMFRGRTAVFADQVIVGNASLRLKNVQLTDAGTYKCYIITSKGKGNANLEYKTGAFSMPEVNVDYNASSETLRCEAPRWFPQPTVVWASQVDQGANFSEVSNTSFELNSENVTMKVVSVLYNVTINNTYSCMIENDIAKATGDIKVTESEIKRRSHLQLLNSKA
Described as above. How it is done: as §1, §2

In experiment [6] the target is T6, B7-DC protein (Sino Biological, 10292-H08H-B) (UniProt Q9BQ51 20-220).
T6 construct: Bought protein
T6 sequence (looked up): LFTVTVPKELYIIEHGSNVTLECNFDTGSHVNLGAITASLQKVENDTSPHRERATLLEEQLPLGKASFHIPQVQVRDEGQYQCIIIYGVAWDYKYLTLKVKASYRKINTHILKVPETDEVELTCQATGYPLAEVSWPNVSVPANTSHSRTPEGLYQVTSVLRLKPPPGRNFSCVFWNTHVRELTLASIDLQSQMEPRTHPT
The description is as above. How it is done:
as §1, §2

T2 sequence (Q9EP73 19-290): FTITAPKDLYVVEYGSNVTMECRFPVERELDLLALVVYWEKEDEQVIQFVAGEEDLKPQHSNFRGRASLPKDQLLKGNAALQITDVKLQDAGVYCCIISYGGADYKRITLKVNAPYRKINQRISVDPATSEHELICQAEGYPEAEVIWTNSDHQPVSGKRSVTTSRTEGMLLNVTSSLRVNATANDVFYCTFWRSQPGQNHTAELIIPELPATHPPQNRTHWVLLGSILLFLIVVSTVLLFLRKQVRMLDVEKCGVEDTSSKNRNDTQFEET
T1 sequence (Q9NZQ7 19-290): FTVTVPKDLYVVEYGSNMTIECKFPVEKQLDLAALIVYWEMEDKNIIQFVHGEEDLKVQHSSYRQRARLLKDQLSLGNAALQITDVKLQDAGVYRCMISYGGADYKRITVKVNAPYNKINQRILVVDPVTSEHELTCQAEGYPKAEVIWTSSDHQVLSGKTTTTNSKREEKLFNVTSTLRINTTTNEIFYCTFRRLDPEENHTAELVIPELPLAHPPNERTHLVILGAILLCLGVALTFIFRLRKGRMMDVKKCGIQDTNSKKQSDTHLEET

B1: m18 (antibody, human IgG1, V domains shown)
VH: EVQLVESGGGLVQPGGSLRLSCAASRTDSNIHGMHWYRQAPGKGREWVGMIFIDGNTIVTDSVKGRFTISRDNAKNTLYLQMNTLRAEDTAVYYCAADSRGYGRAWGQGTTVTVSS
notes: also called antibody m18; anti-PD-L1 antibody m18
In the case of B1, the binding result was “binds” in experiment [1]; “binds” in experiment [2]; “no binding” in experiment [3]; “no binding” in experiment [4]; “no binding” in experiment [5]; “no binding” in experiment [6].
